Laboratory results reported in article PMC3325190 (PLoS Pathogens, 2012).
[ ]: non-standard residue; d: D form. SeMet = C[Se]CC[C@H](N)C(=O)O

T1: AmrZ WT (Pseudomonas aeruginosa PAO1, UniProt G3XCY4 1-108)
T1 sequence: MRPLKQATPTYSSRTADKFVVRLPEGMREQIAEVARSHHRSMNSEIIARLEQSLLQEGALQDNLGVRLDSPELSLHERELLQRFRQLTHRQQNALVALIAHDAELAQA

T2: AmrZ delta42 (Pseudomonas aeruginosa PAO1, UniProt G3XCY4 1-66)
T2 sequence: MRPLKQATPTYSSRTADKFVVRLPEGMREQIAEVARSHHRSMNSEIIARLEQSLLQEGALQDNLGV


The binders below were run against T1, AmrZ WT (assay: fluorescence anisotropy). Settings: protein: recombinant; tags: N-terminal poly-His with 3C site, cleaved by PreScission; chain copies: 4; blunt.

Binder	Kd [nM]
m13 algD (dsDNA) DNA 1: CATTGGCCATTAACAGCCTCCC DNA 2: GGGAGGCTGTTAATGGCCAATG	256 ± 20
GTC amrZ1 (dsDNA) DNA 1: GTACTGTCAAAACGACGGCACG DNA 2: CGTGCCGTCGTTTTGACAGTAC	82.7 ± 8.6
m6 algD (dsDNA) DNA 1: CATTGTCCATTACCAGCCTCCC DNA 2: GGGAGGCTGGTAATGGACAATG	723 ± 37
TTC/GC amrZ1 (dsDNA) DNA 1: GTACTTTCCGCGCGAAGGCACG DNA 2: CGTGCCTTCGCGCGGAAAGTAC	2050 ± 180
CGCG amrZ1 (dsDNA) DNA 1: GTACTGGCCGCGCGCCGGCACG DNA 2: CGTGCCGGCGCGCGGCCAGTAC	63.4 ± 7.3
AATT amrZ1 (dsDNA) DNA 1: GTACTGGCAATTCGCCGGCACG DNA 2: CGTGCCGGCGAATTGCCAGTAC	58.6 ± 7.5
m7 algD (dsDNA) DNA 1: CATTGGACATTACCAGCCTCCC DNA 2: GGGAGGCTGGTAATGTCCAATG	530 ± 52
m8 algD (dsDNA) DNA 1: CATTGGCAATTACCAGCCTCCC DNA 2: GGGAGGCTGGTAATTGCCAATG	365 ± 30
WT algD (dsDNA) DNA 1: CATTGGCCATTACCAGCCTCCC DNA 2: GGGAGGCTGGTAATGGCCAATG	198 ± 14
WT amrZ1 (dsDNA) DNA 1: GTACTGGCAAAACGCCGGCACG DNA 2: CGTGCCGGCGTTTTGCCAGTAC	8.41 ± 0.8
TTC amrZ1 (dsDNA) DNA 1: GTACTTTCAAAACGAAGGCACG DNA 2: CGTGCCTTCGTTTTGAAAGTAC	109 ± 13
m5 algD (dsDNA) DNA 1: CATTTGCCATTACCAGCCTCCC DNA 2: GGGAGGCTGGTAATGGCAAATG	164 ± 17
ATAT amrZ1 (dsDNA) DNA 1: GTACTGGCATATCGCCGGCACG DNA 2: CGTGCCGGCGATATGCCAGTAC	39.1 ± 4.6
m16 algD (dsDNA) DNA 1: CATTGGCCATTACCATCCTCCC DNA 2: GGGAGGATGGTAATGGCCAATG	203 ± 17
TTTT amrZ1 (dsDNA) DNA 1: GTACTGGCTTTTCGCCGGCACG DNA 2: CGTGCCGGCGAAAAGCCAGTAC	41.7 ± 5.1
m17 algD (dsDNA) DNA 1: CATTGGCCATTACCAGACTCCC DNA 2: GGGAGTCTGGTAATGGCCAATG	212 ± 19
m14 algD (dsDNA) DNA 1: CATTGGCCATTACAAGCCTCCC DNA 2: GGGAGGCTTGTAATGGCCAATG	216 ± 17

Biological target: the molecule itself
Assay: crystal structure; Se-Met Δ42 AmrZ in complex with 18 bp amrZ1 DNA; hanging drop vapor diffusion at 25°C, 3% PEG8K, 0.1 M MES pH 6.0, 0.15 M NaCl, 2 mM TCEP, 50 mM MgSO4; 3.1 Å; dimer and dimer of dimers seen on the DNA
Settings: not given

Binder	stoichiometry N
Δ42 AmrZ (C-terminal truncation mutant of AmrZ, residues 1–66) (domain or fragment, not shown: poly-Histidine, N-terminal, cleaved) [SeMet]RPLKQATPTYSSRTADKFVVRLPEG[SeMet]REQIAEVARSHHRS[SeMet]NSEIIARLEQSLLQEGALQDNLGV	4

What follows are binders tested against T2, AmrZ delta42 (assay: X-ray crystal structure (3.1 A); 50 mM MgSO4; SeMet protein; 100 mM Bis-Tris pH 6.5, 150 mM NaCl, 5% glycerol, 100 ug/ml BSA, 100 nM nonspecific DNA, 1 nM 6-FAM 22-mer, 25 C). Settings: protein: recombinant; tags: N-terminal poly-His with 3C site, cleaved by PreScission; chain copies: 4.

Binder	binding result
amrZ1 18 bp crystal oligo (dsDNA) DNA 1: ACTGGCAAAACGCCGGCA DNA 2: TGCCGGCGTTTTGCCAGT	binds
